The text below walks through data of the nanobody polyreactivity screen of Harvey et al. (2022).

The nature of this series: yeast display, Sf9 membrane polyspecificity reagent, FACS + sequencing; frameworks hold sequencing errors. The method, boiled down: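 Galactose-induced (36–48 hours) yeast carrying a synthetic nanobody display library were exposed to 10% biotinylated, detergent-solubilized Sf9 membrane reagent at 4 °C for 1 hour. FACS followed streptavidin microbead enrichment, using low and high (top ~1%) gates for expression (anti-HA) and reagent binding (streptavidin). Colony PCR, MiSeq 2 × 250 sequencing and CDR-length filtering followed. Labels for polyreactivity reflect the gate of origin.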
Consider “QVQLVESGGGLVQAGGSLRLSCAASGRTFWRYAMGWYRQAPGKEREVVAAISRRGDSTYYADSVKGRFTISRDYAKNTVYLQMNSLKPEDTAVYYCNKGYAYSHDDPYWYSPRYDYWGQGTQVTVSS”, for which the “polyreactivity (PSR sort gate)” value is listed as “low polyreactivity”.

As for “QVQLVESGGGLVQAGGSLRLSCAASGRTFWRYAMGWYRQAPWKERELVARISWRGGSTNYADSVKGRFTISRDNAKNTVYLQMNSLKPEDTAVYYFNAEVLNYLVFGYQLGYDYWGQGTQVTVSS”, the “polyreactivity (PSR sort gate)” value is recorded as “low polyreactivity”.

As to “QVQLVESGGGLVQAGGSLRLSCAASGRTFWSNAMGWYRQAPGKERELVAAISTGAGSTYYADSVKGRFTISRDNAKNTVYLQMNSLKPEDTAVYYCAAVYNGALYTYYYWGQGTQVTVSS”, the “polyreactivity (PSR sort gate)” value is “high polyreactivity”.

As to “QVQLVESGGGLVQAGGSLRLSCAASGRTFWSNAMGWYRQAPGKERELVATISSGGGNTYYADSVKGRFTISRDNAKNTVYLQMNSLKPEDTAVYYCAATKYRWTYAASFGYWGQGTQVTVSS”, the “polyreactivity (PSR sort gate)” value is recorded as “high polyreactivity”.

For the sequence “QVQLVESGGGLVQAGGSLRLSCAASGRTFWTKAMGWYRQAPGKEREFVAAISWRGASTFYADSVKGRFTISRDNAKNTVYLQMNSLKPEDTAVYYCAAESYIGKYGSYDYWGQGTQVTVSS”, the “polyreactivity (PSR sort gate)” value is “low polyreactivity”.

For the sequence “QVQLVESGGGLVQAGGSLRLSCAASGRTFWTNAMGWYRQAPGKEREFVAGISQSGGSTYYADSVKGRFTISRDNAKNTVYLQMNSLKPEDTAVYYCATVKAYRRNYYYWGQGTQVTVSS”, the “polyreactivity (PSR sort gate)” value is listed as “high polyreactivity”.

In the case of “QVQLVESGGGLVQAGGSLRLSCAASGRTFWVNAMGWYRQAPGKERELVAGITFRGGSTYYADSVKGRFTISRDNAKNTVYLQMYSLKPEDTAVYYCAADVTFVYSGRRVHYFYWGQGTQVTVSS”, the “polyreactivity (PSR sort gate)” value is given as “high polyreactivity”.

Turning to “QVQLVESGGGLVQAGGSLRLSCAASGRTFWVYAMGWYRQAPGKERELVAAIRRGGITNYADSVKGRFTISRDNAKNTVYLQMNSLKPEDTAVYSCATDNYGYLTRYYYWGQGTQVTVSS”, the “polyreactivity (PSR sort gate)” value is “low polyreactivity”.

On to “QVQLVESGGGLVQAGGSLRLSCAASGRTFWWYGMGWYRQAPGKDRELVAAITNGGSTNYADSVKGRFTISRDIAKNTVYLQMNSLKPEDTAVYYCAARTRSWYGGFYKYYYWGQGTQVTVSS”, for which the “polyreactivity (PSR sort gate)” value is “high polyreactivity”.

Regarding “QVQLVESGGGLVQAGGSLRLSCAASGRTFWYNAMGWYRPAPGKERELVAAIRGSGGSTYYADSVKGRFTISRDNAKNTVYLQLNSLKPEDTAVYYCAARGFYRRTYQYENNYWGQGTQVTVSS”, the “polyreactivity (PSR sort gate)” value is given as “high polyreactivity”.

In the case of “QVQLVESGGGLVQAGGSLRLSCAASGRTFWYNAMGWYSPAPGKERELLAVITKSGGSTYYADSVKGRFTISRDNAKNTVYLQMNSLKPEDTAVYYCAADTYVARSNYRYRGFDYWGQGTQVTVSS”, the “polyreactivity (PSR sort gate)” value is “high polyreactivity”.

As to “QVQLVESGGGLVQAGGSLRLSCAASGRTFWYYAMGWYRQAPGHERELVAAITGRGGRTYYADSVTGRFTISRDNAKNTVYLQMNSLKPEDTAVYYCAARLPYLGGYDYWGQGTQVTVSS”, the “polyreactivity (PSR sort gate)” value is “high polyreactivity”.

For the sequence “QVQLVESGGGLVQAGGSLRLSCAASGRTFWYYAMGWYRQAPGKERELVAYADSVKGRFTISRDKAKNTVYLQMNSLKPEDTAVYYCAVGPVVWFSSSLYYTEYYYWGQGTQVTVSS”, the “polyreactivity (PSR sort gate)” value was “low polyreactivity”.

As to “QVQLVESGGGLVQAGGSLRLSCAASGRTFWYYDMGWYRQAPGKERELVATINNVGSTHYADSVKGRFTISRDNAKNNVYLQMNSLKPEDTSVYYCARASYGKMDYWGQGTQVTVSS”, the “polyreactivity (PSR sort gate)” value is “high polyreactivity”.

Take “QVQLVESGGGLVQAGGSLRLSCAASGRTFWYYTMGWYREAPGKERELVAAINWSGGSTYYADSVKGRFTISRDNAKNTVYLQMNSLKPEDTAVYYCAARRNGYFSAARDYGGQGTQVTVSS”: the “polyreactivity (PSR sort gate)” value was “high polyreactivity”.

Regarding “QVQLVESGGGLVQAGGSLRLSCAASGRTFYANAMGWYRQAPGKERELVAAISSRSGTTHYAHSVKGRFTISRDNAKNTVYLQMNSLKPEDTAVYYCAADSCDLYVWGYDHWGQGTQVTVSS”, the “polyreactivity (PSR sort gate)” value is reported as “low polyreactivity”.

Consider “QVQLVESGGGLVQAGGSLRLSCAASGRTFYANAMGWYRQAPGKERELVASITTSGGTYYADSVKGRFTISRDNAKNTVYLQMNSLKPEDTAVYYCAADVYRSIGYDYWGQGTQVTVSS”, for which the “polyreactivity (PSR sort gate)” value was “low polyreactivity”.

As to “QVQLVESGGGLVQAGGSLRLSCAASGRTFYAYAMGWYRQAPGKERELVATISSSDASTYYADSVKGRFTISRDNAKNTVNLQMNSLKPEETAVYYCNADFVRPSWARGRNNGLYYWGQGTQVTVSS”, the “polyreactivity (PSR sort gate)” value is on record as “low polyreactivity”.

For “QVQLVESGGGLVQAGGSLRLSCAASGRTFYDNAMGWYRQAPGKERELVAAITKSGGRTYYADSVKGRFTISRDFAKNTVYLQMNSLKPEDTAVYYCAASWPNYLYEYWGQGTQVTVSS”, the “polyreactivity (PSR sort gate)” value is “high polyreactivity”.

Take “QVQLVESGGGLVQAGGSLRLSCAASGRTFYDNTMGWYRQAPGKERELVAAISRGGSTYADSVEGRFTISRDNAKNTVYLQMNSLKPEDTAVYYCNKRSITTEYGYWGQGTQVTVSS”: the “polyreactivity (PSR sort gate)” value is reported as “low polyreactivity”.

“QVQLVESGGGLVQAGGSLRLSCAASGRTFYDNTMGWYRQAPGKERELVAAITRNGGSTYYADSVKGRFTISRDNAKNTVYLQMNTLKPEDTAVYYCNAELGILSGVAEGPTFREYDYWGQGTQVNVSS”: the “polyreactivity (PSR sort gate)” value is “low polyreactivity”.

With “QVQLVESGGGLVQAGGSLRLSCAASGRTFYDYAMGWYRQAPGKERELVASIRGSDGSTYYADSVKGRFTISRDNAKNTVYLQMNSLKPEDTEVYYCAARGFYGTNGRVYITSYYYWGQGTQVTVSS”, the “polyreactivity (PSR sort gate)” value is “high polyreactivity”.

In the case of “QVQLVESGGGLVQAGGSLRLSCAASGRTFYDYTMGWYRQAPGKERELVAAISQRGGSTYYADSVKGRFTISRDNAKNTVYLQMNSLKPEDTAVYYCAARTSYSGNKYYYWGQGTQVTVSS”, the “polyreactivity (PSR sort gate)” value was “high polyreactivity”.

“QVQLVESGGGLVQAGGSLRLSCAASGRTFYEYAMGWYRQAPGKERELVAAITIDGSTNYADSVKGRFTISRDNAKNTVYLQMNSLKPEDTAVYYCNARYLLYHGQHYRPYNYWGQGTQVTVSS”: the “polyreactivity (PSR sort gate)” value was “high polyreactivity”.

As for “QVQLVESGGGLVQAGGSLRLSCAASGRTFYEYTMGWYRQAPGKERELVAAITWSVGSTYYADSVKGRFTISRDNAKNTVYLQMNSLKPEDTAVYYCAAYYYVWYYYWGQGTQVTVSS”, the “polyreactivity (PSR sort gate)” value is recorded as “low polyreactivity”.

Regarding “QVQLVESGGGLVQAGGSLRLSCAASGRTFYFNAMRWYRQAPGKERELVAGISGDGSTNYADSVKGRFTISRDNAKNTVYLQMNSLKPEDTAVYYCAARIRPGYRTWYYSWGQGTQVTVSS”, the “polyreactivity (PSR sort gate)” value was “low polyreactivity”.

“QVQLVESGGGLVQAGGSLRLSCAASGRTFYFNSMGWYRQAPGKERELVASISYGSNTNYADSVKGRFTISRDNAKNTVYLQMNSLKPEDTAVYYCAVRWVYRTYSWGARYGRYDYWGQGTQVTVSS”: the “polyreactivity (PSR sort gate)” value is given as “high polyreactivity”.

Take “QVQLVESGGGLVQAGGSLRLSCAASGRTFYFNTMGWYRQAPGKERELVATISWSGGRTYYADSVKGRFTISRDNAKNTVYLQMNSLKPEDTAVYYCAAVRYRGFDYWGQGTQVTVSS”: the “polyreactivity (PSR sort gate)” value was “high polyreactivity”.

“QVQLVESGGGLVQAGGSLRLSCAASGRTFYFYAMGWYRHAPGKERELVAAITSGGGRTNYADSVKGRFTISRDNAKNTVYLQMNSLKPEDTSVYYCAAVLYGQYTGKYYFWGQGTQVTVSS”: the “polyreactivity (PSR sort gate)” value is “high polyreactivity”.

Consider “QVQLVESGGGLVQAGGSLRLSCAASGRTFYFYAMGWYRQAPGKERELVAAITFSGGSTYYADSVKGRFTISRDNAKNTVYLQMNSLKPEDTAVYYCIAVSTYKREYWGQGTQVTVSS”, for which the “polyreactivity (PSR sort gate)” value is recorded as “low polyreactivity”.

Turning to “QVQLVESGGGLVQAGGSLRLSCAASGRTFYFYAMGWYRQAPGKERELVAAITWSDGTTYYADSVKGRFTISRDNAKNTVYLHMNSLKPEDTAVYYCAARVRIYGRRYNYWGQGTQVTVSS”, the “polyreactivity (PSR sort gate)” value is reported as “high polyreactivity”.

As to “QVQLVESGGGLVQAGGSLRLSCAASGRTFYFYAMGWYRQAPGKERELVASITSSGGNTYYADSVKGRVTISRDNAKNTVYLQMNSLKPEDTAVYYCAARWFPWLQWKRYDYWGQGTQVTVSS”, the “polyreactivity (PSR sort gate)” value is “low polyreactivity”.

Regarding “QVQLVESGGGLVQAGGSLRLSCAASGRTFYFYAMGWYRQAPGKEWELVAAISWSGGRTYYADSVKGRFTISRDNAKNTVYLQMNSLNPEDTAVYYCAAEYRWSVGYWRYGLDDYWGQGTQVTVSS”, the “polyreactivity (PSR sort gate)” value is listed as “high polyreactivity”.

As for “QVQLVESGGGLVQAGGSLRLSCAASGRTFYFYTKGWYRQAPGKERELVATAITSGGSTNYADSVKGRFTISRDNAKNTVYLQMNSLKPEDTAVYYCNARYTYLWSSLYYWGQGTQVTVSS”, the “polyreactivity (PSR sort gate)” value is recorded as “low polyreactivity”.

Turning to “QVQLVESGGGLVQAGGSLRLSCAASGRTFYFYTLGWYRQAPGKERELVAAISWSGGSTYSADSVKGRFTISRDNAKNTVYLQLNSLKPEDTAVYYCAASSPWEQSNDQFYYWGQGTQVTVSS”, the “polyreactivity (PSR sort gate)” value is “low polyreactivity”.

As for “QVQLVESGGGLVQAGGSLRLSCAASGRTFYGNAMGWYRQAPGTEREFVAAITRSGGTTYYADSVKGRFTISRDNAKNTVYLQMNSLKPEDTAVYYCARSYGWYRWAGYDYWGQGTQVTVSS”, the “polyreactivity (PSR sort gate)” value is “high polyreactivity”.

As for “QVQLVESGGGLVQAGGSLRLSCAASGRTFYGNVMGWYRQAPGKEREWVAVISWSSGSTSYADSVKGRFTISRDNAKNTVYLQMNSLKPEDTAVYYCAGTTRPPRYRQYDSDYYYWGQGTQVTVSS”, the “polyreactivity (PSR sort gate)” value is “low polyreactivity”.

Consider “QVQLVESGGGLVQAGGSLRLSCAASGRTFYGYAMGWSRQAPGKERELVAAISVSGGGTYYADSVKGRFTISRDNAKYTVYLQMNSLKPEDTAVYYCAAAVYERPRDYYYWGQGTQVTVSS”, for which the “polyreactivity (PSR sort gate)” value is “low polyreactivity”.

On to “QVQLVESGGGLVQAGGSLRLSCAASGRTFYGYAMGWYRQAPGKERELVAAISRRGGSTNYADSVKGRFTLSRDNAKNTVYLQMNSLKPEDTAVYYCNVAFRIPYRMDYWGQGTQVTVSS”, for which the “polyreactivity (PSR sort gate)” value was “high polyreactivity”.

Consider “QVQLVESGGGLVQAGGSLRLSCAASGRTFYGYAMGWYRQAPGKERELVAAISWTGGRTYYADSVKGRFTISRDNAKNTVYLQMNSLKPEDTAVYYCNARRRGDSGDGYIYGYWGQGTQVTVSS”, for which the “polyreactivity (PSR sort gate)” value was “high polyreactivity”.
